Results: PMC9089689 (ACS Omega, 2022)

T1: Hup-WT (histone-like DNA binding protein HU) (Helicobacter pylori, UniProt O25506 1-94)
T1 sequence: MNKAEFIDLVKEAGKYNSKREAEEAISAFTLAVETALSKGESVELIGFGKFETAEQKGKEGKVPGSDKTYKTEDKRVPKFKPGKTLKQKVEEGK


Legend:
[1] = molecular target: T1, Hup-WT (histone-like DNA binding …); assay: Tyr fluorescence quenching
SEC = molecular target: the molecule itself; assay: SEC
NMR 1H-15N HSQC = molecular target: the molecule itself; assay: NMR 1H-15N HSQC

Binder	Kd [1] [nM]	stoichiometry N (SEC)	intensity ratio [dimer:monomer] (NMR 1H-15N HSQC)
TTTTTTTTTTCGAAGAAAAAAAAAA (structured_DNA) [hp-DNA (25-base A/T-rich hairpin)]	500 ± 50	–	–
Hup-P64A protein (natural protein, Helicobacter pylori, UniProt O25506 1-94, looked up) MNKAEFIDLVKEAGKYNSKREAEEAISAFTLAVETALSKGESVELIGFGKFETAEQKGKEGKVAGSDKTYKTEDKRVPKFKPGKTLKQKVEEGK	–	2	~1.5
Helicobacter pylori histone-like DNA binding protein (Hup), wild type (natural protein, UniProt O25506 1-94, looked up) MNKAEFIDLVKEAGKYNSKREAEEAISAFTLAVETALSKGESVELIGFGKFETAEQKGKEGKVPGSDKTYKTEDKRVPKFKPGKTLKQKVEEGK	–	2	–
